The source of these data is the supplement of paper PMC10567573.

To fix the notation:
B1: TSN (parent)
chain: FVELQGFLAAEQDIREEIRKVVQS
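Note: lentivirally expressed fusions sorted by FACS into six bins by GFP to DsRed ratio, PSI derived from sequencing read proportions per bin multiplied by bin number.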

The data set covers variants of B1. Description: protein stability index of a GFP-peptide fusion (GPS, HEK-293T) (PSI 1-6); higher = more stable. To be noted: c terminus: a fixed tail appended.
FVELQGFLAAEQDTREEIRKVVQS [I14T]: the protein stability index is 2.01. FVELQGFLAAEQDAREEIRKVVQS [I14A]: the protein stability index turned out to be 2.73. For FVELQGFLAAEQDDREEIRKVVQS [I14D] the value was 1.4. Take FVELQGFLAAEQDYREEIRKVVQS [I14Y]: the protein stability index came to 1.23.

Consider FVELQGFLAAEQDEREEIRKVVQS [I14E], for which the protein stability index stood at 3.21. For FVELQGFLAAEQDRREEIRKVVQS [I14R], the protein stability index came to 1.64. Regarding FVELQGFLAAEQDWREEIRKVVQS [I14W], the protein stability index was 2.36. In the case of FVELQGFLAAEQDIREEIRKVEQS [V22E] it was 2.23; in that of FVELQGFLAAEQDIREEIRKVFQS [V22F], 2.67; in that of FVELQGFLAAEQDIREEIRKVCQS [V22C], 3. As to FVELQGFLAAERDIREEIRKVVQS [Q12R], the protein stability index came out at 3.99.

Turning to FVELQGFLAAECDIREEIRKVVQS [Q12C], the protein stability index worked out at 1.92. Turning to FVELQGFLAAEVDIREEIRKVVQS [Q12V], the protein stability index stood at 2.6. In the case of FVELQGFLAAEKDIREEIRKVVQS [Q12K] it was 2.24.

Take FVELQGFLAAEMDIREEIRKVVQS [Q12M]: the protein stability index stood at 2.17. Consider FVELQGFLAAEEDIREEIRKVVQS [Q12E], for which the protein stability index was 3.62. As for FVELQGFLAAEPDIREEIRKVVQS [Q12P], the protein stability index worked out at 1.39. For FVELQGFLAAEQMIREEIRKVVQS [D13M], the protein stability index was 2.91.

Consider FVELQGFLAAEQAIREEIRKVVQS [D13A], for which the protein stability index is 3.62. Regarding FVELQGFLAAEQSIREEIRKVVQS [D13S], the protein stability index was found to be 1.52. Take FVELQGFLAAEQHIREEIRKVVQS [D13H]: the protein stability index was determined as 2.78. In the case of FVELQGFLAAEQNIREEIRKVVQS [D13N] it was 3.27; in that of FVELQGFLAAEQFIREEIRKVVQS [D13F], 1.85; in that of FVELQGFLAAEQDIRREIRKVVQS [E16R], 2.3. For FVELQGFLAAEQDIRSEIRKVVQS [E16S], the protein stability index worked out at 1.18. For the variant FVELQGFLAAEQDIRTEIRKVVQS [E16T], the protein stability index turned out to be 1.14. As for FVELQGFLAAEQDIRDEIRKVVQS [E16D], the protein stability index worked out at 3.34.

In the case of FVELQGFLAAEQDIRLEIRKVVQS [E16L], the protein stability index is 1.76. For FVELQGFLAAEQDIRHEIRKVVQS [E16H] the value was 1.34; for FVELQGFLAAEQDIREEITKVVQS [R19T], 2.25. FVELQGFLAAEQDIREEIKKVVQS [R19K]: the protein stability index was determined as 2.67. For the variant FVELQGFLAAEQDIREEINKVVQS [R19N], the protein stability index was 2.38.

In the case of FVELQGFLAAEQDIREEIDKVVQS [R19D], the protein stability index is 1.6. In the case of FVELQGFLAAEQDIREEIIKVVQS [R19I] it was 1.78; in that of FVELQGFLAAEQDIREEIAKVVQS [R19A], 2.44. As to FVELQGFLAAEQDIREEICKVVQS [R19C], the protein stability index was 2.32. For the variant FVELQGFLAAEQDIREEIGKVVQS [R19G], the protein stability index turned out to be 3.

As for FVELQGFLAAEQDIREEIQKVVQS [R19Q], the protein stability index was found to be 3.16. On to FVELQGFLAAEQDIREEISKVVQS [R19S], for which the protein stability index is 3.87. For FVELQGFLAAEQDIREEIVKVVQS [R19V], the protein stability index was 1.97.

For the variant FVELQGFLAAEQDIREEIYKVVQS [R19Y], the protein stability index was determined as 1.46.

In the case of FVELQGFLAAEQDIREEIRLVVQS [K20L], the protein stability index stood at 1.83. Take FVELQGFLAAEQDIREEIRHVVQS [K20H]: the protein stability index stood at 1.94. Turning to FVELQGFLAAEQDIREEIRTVVQS [K20T], the protein stability index amounted to 1.89.

On to FVELQGFLAAEQDIREEIRMVVQS [K20M], for which the protein stability index came out at 1.89. As for FVELQGFLAAEQDIREEIRAVVQS [K20A], the protein stability index is 2.27.

FVELQGFLAAEQDIREEIRSVVQS [K20S]: the protein stability index was 1.96. For the variant FVELQGFLAAEQDIREEIRIVVQS [K20I], the protein stability index came to 3.91.

Take FVELQGFLAAEQDIREEIRPVVQS [K20P]: the protein stability index stood at 2.1. As for FVELQGFLAAEQDIREEIRGVVQS [K20G], the protein stability index was found to be 1.7. For FVELQGFLAAEQDIREEIRCVVQS [K20C], the protein stability index came out at 2.75.

Turning to FVELQGFLAAEQDIREEIRYVVQS [K20Y], the protein stability index was found to be 2.21. For the variant FVELQGFLAAEQDIREEIRRVVQS [K20R], the protein stability index came out at 1.99. FVELQGFLAAEQDICEEIRKVVQS [R15C]: the protein stability index turned out to be 1.82.

Consider FVELQGFLAAEQDIYEEIRKVVQS [R15Y], for which the protein stability index is 1.76. Consider FVELQGFLAAEQDINEEIRKVVQS [R15N], for which the protein stability index was 1.03. With FVELQGFLAAEQDIDEEIRKVVQS [R15D], the protein stability index came out at 1.26.

For FVELQGFLAAEQDILEEIRKVVQS [R15L], the protein stability index worked out at 2.35. For the variant FVELQGFLAAEQDISEEIRKVVQS [R15S], the protein stability index came to 1.98. On to FVELQGFLAAEQDIEEEIRKVVQS [R15E], for which the protein stability index turned out to be 2.06.

FVELQGFLAAEQDIWEEIRKVVQS [R15W]: the protein stability index was found to be 1.39. For the variant FVELQGFLAAEQDIHEEIRKVVQS [R15H], the protein stability index came to 1.91. Turning to FVELQGFLAAEQDIMEEIRKVVQS [R15M], the protein stability index was found to be 1.83.

Turning to FVELQGFLAAEQDIGEEIRKVVQS [R15G], the protein stability index was found to be 1.41. As for FVELQGFLAAEQDIREEIRKDVQS [V21D], the protein stability index stood at 2.52.

In the case of FVELQGFLAAEQDIREEIRKNVQS [V21N], the protein stability index was determined as 2.47.

On to FVELQGFLAAEQDIREEIRKSVQS [V21S], for which the protein stability index stood at 1.45. Take FVELQGFLAAEQDIREEIRKPVQS [V21P]: the protein stability index is 2.51. Take FVELQGFLAAEQDIREEIRKTVQS [V21T]: the protein stability index came out at 3.32. Turning to FVELQGFLAAEQDIREEIRKYVQS [V21Y], the protein stability index stood at 1.68.

Turning to FVELQGFLAAEQDIREEIRKEVQS [V21E], the protein stability index came to 1.55.

As for FVELQGFLAAEQDIREEIRKMVQS [V21M], the protein stability index was 1.21. Turning to FVELQGFLAAEQDIREEIRKKVQS [V21K], the protein stability index was determined as 1.79.

Take FVELQGFLAAEQDIREEIRKIVQS [V21I]: the protein stability index stood at 3.69. For FVELQGFLAAEQDIREEIRKGVQS [V21G] the value was 1.69.

Consider FVELQGFLAAEQDIREEIRKQVQS [V21Q], for which the protein stability index turned out to be 2.13. With FVELQGFLAAEQDIREEIRKWVQS [V21W], the protein stability index came out at 2.27.

Turning to FVELQGFLAAEQDIREEIRKAVQS [V21A], the protein stability index stood at 1.29. As to FVELQGFLAAEQDIREEHRKVVQS [I18H], the protein stability index was 1.24. Consider FVELQGFLAAEQDIREEFRKVVQS [I18F], for which the protein stability index was determined as 2.06. In the case of FVELQGFLAAEQDIREEDRKVVQS [I18D] it was 1.62; in that of FVELQGFLAAEQDIREEPRKVVQS [I18P], 3.43. Turning to FVELQGFLAAEQDIREERRKVVQS [I18R], the protein stability index was 1.68. Take FVELQGFLAAEQDIREEYRKVVQS [I18Y]: the protein stability index turned out to be 2.13. Consider FVELQGFLAAEQDIREESRKVVQS [I18S], for which the protein stability index is 1.75.

With FVELQGFLAAEQDIREEARKVVQS [I18A], the protein stability index was 1.82. Regarding FVELQGFLAAEQDIREELRKVVQS [I18L], the protein stability index came out at 2.87. For the variant FVELQGFLAAEQDIREHIRKVVQS [E17H], the protein stability index was determined as 2.3. With FVELQGFLAAEQDIREGIRKVVQS [E17G], the protein stability index came out at 2.42.

Regarding FVELQGFLAAEQDIREYIRKVVQS [E17Y], the protein stability index was 1.93. As to FVELQGFLAAEQDIRERIRKVVQS [E17R], the protein stability index was 1.48.

As for FVELQGFLAAEQDIRELIRKVVQS [E17L], the protein stability index turned out to be 2.69. In the case of FVELQGFLAAEQDIREMIRKVVQS [E17M] it was 2.49; in that of FVELQGFLAAEQDIREVIRKVVQS [E17V], 2.91.
